# Results published in the domain aggregation screens of Martell et al. (2025).
# Assay: soluble fraction after stress (log2 fold change); higher = more stays soluble; pooled small domains, quantitative proteomics
# Conditions: stress: 75 degC
# 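Further: 20 min heating vs room temperature control held 20 min.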
row,Sequence,soluble fraction (log2)
1,HMTAGYFTRGSHQDEVLRIQGTPSGVNKYSDHEVWNYGLSSVDISLRDRRVTEWNNISGNLKV,-0.149
2,HMTAKRELILRVFMDSNGKLLSIDDVFMEMRKKRSHRTSKMTVKRAIDLLVDLGLLKEVLFDDDNIKYEYV,-1.26
3,HMTALISGNKAMQMLELSRHSFEKIVKDGLLSIVHEGDKKYYEIGEVEAFMGSDTYKELVNGV,0.449
4,HMTALSIGTVVRFTGDRHYISSTGDTGYPASPGLAKITSINPGSKHPYHLIHIDNTSNVYGWVNKQDIIT,-1.17
5,HMTAQLSITLNGETRRAAAGSIADLVRSLELDPAKVAVERNGLIVPRSTLAEVALGDGDVLEIVHFV,-1
6,HMTASTLSYSKFNEQVVQNQVRKVTFQGEQVKGELISGQTFTTTVPANDTTLWPMLKAHNVDTAVTAA,0.186
7,HMTASVTDAMFELIDELPKLGKTSFRQLTADLVDRLQVVVTFLAVLELYKQGHVELDQSERFGDITVVWTG,0.208
8,HMTATIEEVNELTQSARVNINVPYAAKDEAKAYGAKWDDVERTWYTTGENYAQNKDFFDGFNPTAS,0.583
9,HMTATWLTYYRIKAGLTQKRLAELAGLNIRQVQKIENGETLAGNTTAKNLLALADALGIDPHKL,-2.15
10,HMTAYENSIPLNWVIQKGDAKGLPLSANTARLLIDIVGIDLMDLDHELEKISLYLSGESITEEMIKEHIRG,-0.709
11,HMTDAELDLLTPREQEVLQLIARGYLYKEIARRLGISVKTVEAHASSVLRKLQLSTRHELSHWAAQRH,-0.0813
12,HMTDAYEVLDLNREASDEEIKKRYRELIREHHPDTLIAKGVPQEFVDLANDKMAAINAAYDRIEKDRGL,0.56
13,HMTDEEKENLREKMLEAGFPLLKQYGMTHTSVAKITQAAGIAVGTFYSFWKNKEAYMADLIGYHRR,-1.27
14,HMTDITSAITRLNKYNKSGTPLTIDSVTPEALQTLQAKVSSAFEIGAVNQQTYDDVTKDIATLQQYLSSA,0.378
15,HMTDIVPNLIGKSLKDAIQSVEKSNLKAIFDGHGIVVSQQPRPGSPIPARKIMKVTLSPDYR,-0.13
16,HMTDKLEEEAKKKAMEDALADEMNISKTIVHDGIRELARIGFLDVISRKGIYVADYTFTGNLETLLAVIRY,-0.848
17,HMTDLDDFAARLKTLTDGRASTPRLRDGVMMLSLDVGGLGPDQRDGLIAAIREGGLTVPGVSDVRIVMT,-0.125
18,HMTDLEDDEKKVYRLIVESGEGIDFDTLSERSGFSATELPSILLFLMMKEMIDELPGKIYRYSE,-0.0725
19,HMTDMYLTYQELRHLGVSQNLISMWKSRKSIDFHMLGGTLYVRYMSIPEQTRSKLALQNVERVYNSRE,-2.6
20,HMTDRINIGDVVTIISKDREDSQIVYMRYHKGKLSILGELILNKTKNDTVDFKGRTYDIATIEKS,-2.22
21,HMTDVHFIDVPVSEGHPWIGLTVKDLNLPPGTLLVFLNHPGEKSTVPNGDTVLREGDVLVLGATAYAG,-0.384
22,HMTDYKTNLQEFLQQDGEVEIEYKLLAEVGPSHARQFEVDVMMGDRVLGSGVGRNKKAAEQAAAKVALSKL,-0.0613
23,HMTDYVPTIGTKISKDFGSKGYFEGEVVSGPHNVTVEGDNMVVWKVQYEDGDREEMTASEIAHWKA,-0.104
24,HMTEAIDVPNLVGQNYSDVKSNSSYKFNWDIINVYDSGKPEGEIIKQEPEAGSKKVKENAVITLTVN,0.538
25,HMTEDNDLETIAYDILKERNLNNININVKNGVLNIYGKTETLKEKREIEKILSSLNVSKINNLIKI,0.258
26,HMTEDQDWAIFKQKLKAQTEIDLDLYKEPQMKHRIKNLIQNAGFDSYVQYFDYVYLNQDRLAAFLENLTV,-0.535
27,HMTEEELLERLDAVITEYKGKPGALIPVLQLAQGIFGYLPEVALKHIARQLDKPYSEVAGVVSFYSFFTT,0.291
28,HMTEFDVIMKSFGSEKIKVIKEVRAITGLGLAEAKALVEGVPAKIKEQVSKDDAEALKKQLEAVGAEVEL,-0.0848
